Patent US20230128075A1 (University of Texas, published 2023)

Columns and labels:
[1] = biological target: T1, ADP-HSP70 (ADP-enriched HSP70) (Homo sapiens (Human), UniProt P0DMV8 1-641); assay: BLI, 77A on sensor
T1 construct: also called ADP-HSP70 complexes
Procedure: HSP70 was expressed in SF9 cells. Affinity chromatography using resins selective for ADP or ATP-binding proteins were used to enrich bulk preparations of the correspondingly bound HSP70 recombinant protein. Protein concentrations, determined after elution, were measured so that equal concentrations could be used in subsequent assays. For BLI-based assays, antibodies and reagents were diluted out onto microwell plates and loaded into the instrument. Antibodies being tested were immobilized onto dip-and-read sensors and then observed for kinetics during binding to ATP or ADP-enriched HSP70. For ELISA, the relevant enriched HSP70 proteins were directly coated onto ELISA plate wells overnight. Test antibodies were then serially diluted across the plate wells, and detected using an appropriate secondary antibody-HRP conjugate. The plates were developed using a TMB substrate, and the O.D. stabilized using an acid stop solution.

534 = biological target: T2, 534; assay: immunoprecipitation of cell extracts with 77A, Western blot with anti-GFP [panel B]
T2 construct: lane label in panels A and B
T2 sequence (chain, as listed by the source limits assumed): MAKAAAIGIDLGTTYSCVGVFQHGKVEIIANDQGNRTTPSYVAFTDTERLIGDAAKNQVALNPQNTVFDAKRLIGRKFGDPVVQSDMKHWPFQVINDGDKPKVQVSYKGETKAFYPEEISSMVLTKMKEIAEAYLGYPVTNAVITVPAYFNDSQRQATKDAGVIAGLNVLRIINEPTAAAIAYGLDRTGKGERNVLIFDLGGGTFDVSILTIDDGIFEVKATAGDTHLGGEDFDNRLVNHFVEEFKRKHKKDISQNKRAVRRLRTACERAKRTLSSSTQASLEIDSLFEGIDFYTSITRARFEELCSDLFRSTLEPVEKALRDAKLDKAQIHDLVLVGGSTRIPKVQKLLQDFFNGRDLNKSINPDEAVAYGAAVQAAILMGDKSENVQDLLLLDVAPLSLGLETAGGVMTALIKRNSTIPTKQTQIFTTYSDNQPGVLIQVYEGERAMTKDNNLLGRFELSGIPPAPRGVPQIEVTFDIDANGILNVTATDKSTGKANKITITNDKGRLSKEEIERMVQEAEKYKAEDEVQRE
Procedure: (§1) IP of cell extracts with 77A was followed by detection of proteins by Western blotting (WB) with an anti-GFP antibody (B). Smaller deletions were then generated for finer mapping (C), and the indicated IPs were performed from cell lysates (CL) or culture media supernatants (CM). Loading was confirmed with an a-light chain (LC) antibody. The putative binding domain for 77A is indicated on a molecular model of HSP70 representing the relevant region of the protein (D). The exact amino acids that comprise the 77A epitope were determined using alanine scanning analysis, and the results are shown in (E), and the ribbon diagram showing the primary and secondary critical sites is shown in (F).
(§2) Alanine scanning analysis was performed to identify key amino acids in HSP70 with which 77A interacts (FIG. 3E).

614 = biological target: T3, 614; assay: immunoprecipitation from cell lysate (CL) with 77A, Western blot GFP [panel C]
T3 construct: lane label in panel C
T3 sequence (chain, as listed by the source limits assumed): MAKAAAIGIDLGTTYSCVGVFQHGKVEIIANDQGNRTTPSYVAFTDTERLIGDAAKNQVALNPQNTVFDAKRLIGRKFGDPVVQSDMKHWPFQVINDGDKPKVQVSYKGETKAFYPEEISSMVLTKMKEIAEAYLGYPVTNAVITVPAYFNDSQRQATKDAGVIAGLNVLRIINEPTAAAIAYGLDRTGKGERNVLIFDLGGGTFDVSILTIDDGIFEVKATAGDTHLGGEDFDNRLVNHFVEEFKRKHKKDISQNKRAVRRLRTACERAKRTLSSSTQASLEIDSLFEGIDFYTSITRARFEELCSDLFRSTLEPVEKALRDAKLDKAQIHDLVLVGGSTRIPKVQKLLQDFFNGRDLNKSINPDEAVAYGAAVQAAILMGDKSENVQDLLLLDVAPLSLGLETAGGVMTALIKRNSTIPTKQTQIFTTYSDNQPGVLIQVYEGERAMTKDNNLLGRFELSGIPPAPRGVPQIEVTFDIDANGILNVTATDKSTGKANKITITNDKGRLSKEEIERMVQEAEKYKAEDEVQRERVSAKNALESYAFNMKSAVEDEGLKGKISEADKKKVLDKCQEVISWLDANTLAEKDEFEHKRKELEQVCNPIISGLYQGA
Procedure: as §1, §2

T1 sequence (P0DMV8 whole entry): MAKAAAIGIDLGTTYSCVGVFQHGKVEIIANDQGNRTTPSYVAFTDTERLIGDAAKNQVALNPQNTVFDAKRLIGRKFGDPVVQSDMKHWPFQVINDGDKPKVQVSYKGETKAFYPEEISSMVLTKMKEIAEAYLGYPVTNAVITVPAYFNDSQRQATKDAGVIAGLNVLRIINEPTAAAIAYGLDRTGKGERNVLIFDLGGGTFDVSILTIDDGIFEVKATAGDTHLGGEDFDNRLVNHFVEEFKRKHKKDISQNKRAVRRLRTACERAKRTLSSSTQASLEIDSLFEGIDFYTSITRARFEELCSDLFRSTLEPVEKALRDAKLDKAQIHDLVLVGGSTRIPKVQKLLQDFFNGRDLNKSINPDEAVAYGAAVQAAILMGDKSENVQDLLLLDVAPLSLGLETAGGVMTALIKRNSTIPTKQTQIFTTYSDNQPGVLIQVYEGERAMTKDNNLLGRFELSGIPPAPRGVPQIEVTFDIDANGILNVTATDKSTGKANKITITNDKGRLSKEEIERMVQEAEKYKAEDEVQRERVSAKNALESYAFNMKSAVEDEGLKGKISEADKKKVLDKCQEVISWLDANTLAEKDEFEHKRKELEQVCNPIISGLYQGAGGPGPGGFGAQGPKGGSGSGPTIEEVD

B1: 77A antibody (clone 77A, murine anti-HSP70 mAb) (antibody, V domains shown)
VH: QIQLVQSGPELKKPGETVKISCKASGYTFTNYGMNWVKQAPGKGLKWMGWINTYTGEPTYADDFKGRFAFSLETSATTAYLQINNLKNEDTATYFCARYDHAMDYWGQGTSVTVSS
VL: DIVMSQSPSSLAVSAGEKVTMSCKSSQSLLNSGTRKNYLAWYQQKPGQSPKLLIYWTSTRESGVPDRFTGSGSGTDFTLTINSVQAEDLAVYYCKQSYTLYTFGGGTKLEIK
notes: Murine hybridoma mAb; its isotype control is IgG2B; also called mAb 77A
- fold greater affinity (KD) than for ATP-enriched HSP70 [1]: ≥ 4 fold
- binding result 534: binds
- binding result 614: binds
